Measurements: patent US20090068173A1 (LABORATOIRES SERONO S A, published 2009)

Target: T1, CCL3/MIP-1 alpha (UniProt P10147 24-92)
T1 construct: also called MIP-1α; 125I-CCL3/MIP-1 alpha
T1 sequence (looked up): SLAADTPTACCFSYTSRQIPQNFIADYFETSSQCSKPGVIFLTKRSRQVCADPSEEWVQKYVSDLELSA
Test: SPA competition: ChBP-59-HIS (insect cells) titrated against radiolabeled CCL3/MIP-1 alpha and bead-immobilized CCR5

B1: ChBP-59-HIS (recombinant histidine-tagged ChBP-59, mature form) (other)
chain: EDDEDYGDLGGCPFLVAENKTGYPTIVACKQDCNGTTETAPNGTRCFSIGDEGLRRMTANLPYDCPLGQCSNGDCIPKETYEVCYRRNWRDKKNHHHHHH
EC50: 0.012 nM
